Results as given in US20250197476A1.
Each block holds one substance with its values, some of them ahead of it.

Experiments:
[1] = molecular target: Fc gamma receptors of human macrophages; assay: cytofluorometry, human macrophages with 5 µg/ml hybrid for 2 h at 37 °C, anti-Fc-FITC
[2] = molecular target: Fc gamma receptors of human macrophages; assay: cytofluorometry, human macrophages with 5 µg/ml hybrid for 20 h at 37 °C, anti-Fc-FITC
[3] = molecular target: Fc gamma receptors of NK cells; assay: competition, cytofluorometry on NK cells; human IgG at 10 µg/ml against FcSDHFSTIE-N3-DBCO-A647 at 10 µg/ml
[4] = molecular target: Fc gamma receptors of NK cells; assay: competition, cytofluorometry on NK cells; human IgG at 100 µg/ml against FcSDHFSTIE-N3-DBCO-A647 at 10 µg/ml
[5] = molecular target: Fc gamma receptors of NK cells; assay: competition, cytofluorometry on NK cells; human IgG at 1 µg/ml against FcSDHFSTIE-N3-DBCO-A647 at 10 µg/ml
[6] = molecular target: Fc gamma receptors of NK cells; assay: competition, cytofluorometry on NK cells; human IgG at 1000 µg/ml against FcSDHFSTIE-N3-DBCO-A647 at 10 µg/ml
[7] = molecular target: Fc gamma receptors of NK cells; assay: competition, cytofluorometry on NK cells; human IgG at 10000 µg/ml against FcSDHFSTIE-N3-DBCO-A647 at 10 µg/ml
[8] = molecular target: Fc gamma receptors of NK cells; assay: cytofluorometry, NK cells, 10 µg/ml, no competing IgG (same values as Table 9)
[9] = molecular target: Fc gamma receptors of NK cells; assay: cytofluorometry, NK cells, 10 µg/ml, 30 min at 37 °C
[10] = molecular target: Fc gamma receptors of NK cells; assay: cytofluorometry, NK cells, 48 h at 37 °C
[11] = molecular target: Fc gamma receptors of NK cells; assay: cytofluorometry, NK cells, 24 h at 37 °C
[12] = molecular target: Fc gamma receptors of NK cells; assay: cytofluorometry, NK cells, 30 min at 37 °C

Substance: FcWT-N3-DBCO-β60-74Cit (from UniProt P01857 104-330)
fluorescence (Macrophages) [1]: 808
fluorescence (Macrophages) [2]: 1000

Substance: FcSDHFSTIE-N3-DBCO-PEG3-β60-74cit-lysineA488 (from UniProt P01857 104-330)
MFI [10]: 4340
MFI [11]: 4090
MFI [12]: 4590

Substance: FcSDHFSTIE-N3-DBCO-A488 (from UniProt P01857 104-330)
MFI [10]: 1710
MFI [11]: 2350
MFI [12]: 2970

Substance: FcSDHFSTIE-N3-DBCO-β60-74Cit (from UniProt P01857 104-330)
fluorescence (Macrophages) [1]: 1330
fluorescence (Macrophages) [2]: 1460

The remaining lines, values ahead:

fluorescence (Macrophages) [1]: 502
fluorescence (Macrophages) [2]: 404
Substance: FcLALAPG-N3-DBCO-β60-74Cit (from UniProt P01857 104-330)

MFI of FcSDHFSTIE-N3-DBCO-A647 with competing IgG [3]: 38800
RATIO of FcSDHFSTIE-N3-DBCO-A647 with competing IgG [3]: 183
MFI of FcSDHFSTIE-N3-DBCO-A647 with competing IgG [4]: 36300
RATIO of FcSDHFSTIE-N3-DBCO-A647 with competing IgG [4]: 171
MFI of FcSDHFSTIE-N3-DBCO-A647 with competing IgG [5]: 37900
RATIO of FcSDHFSTIE-N3-DBCO-A647 with competing IgG [5]: 179
MFI of FcSDHFSTIE-N3-DBCO-A647 with competing IgG [6]: 29500
RATIO of FcSDHFSTIE-N3-DBCO-A647 with competing IgG [6]: 139
MFI of FcSDHFSTIE-N3-DBCO-A647 with competing IgG [7]: 20500
RATIO of FcSDHFSTIE-N3-DBCO-A647 with competing IgG [7]: 96.6
Substance: human IgG (antibody)

MFI [8]: 38500
MFI [9]: 38500
Substance: FcSDHFSTIE-N3-DBCO-A647 (from UniProt P01857 104-330)

MFI [9]: 450
Substance: FcLALAPG-N3-DBCO-A647 (from UniProt P01857 104-330)
